Measured values taken from US20100169992A1 (U3 PHARMA, published 2010).

Biological target: T1, FGFR4 expressed on cells (L6-FGFR4 myoblasts; ZR-75-1 breast cancer cells) (UniProt P22455 22-802, limits assumed)
T1 construct: whole, on cells; also called L6-FGFR4 cells; FGFR4-transfected L6 myoblasts
Assay: FACS Scatchard on L6-FGFR4 cells, anti-rat-PE detection
Method: L6-FGFR4 cells were harvested by incubation with 10 mM EDTA in PBS and resuspended at 6 million cells per ml in FACS buffer (PBS pH 7.4, 3% FCS, 0.1% NaN₃). In a round-bottom microtiter plate, 100 μl of cell suspension were added to 100 μl of antibody solution containing antibodies 10F10 or 9A5 at concentrations between 31.25 and 0.01 μg/ml in FACS buffer. Antibody binding was allowed to proceed for 2 hours ice. Then, cells were washed twice with 250 μl FACS buffer per well, and resuspended in 200 μl of secondary antibody (anti-rat-PE; Jackson), diluted 1:50 in FACS buffer. After 45 minutes of incubation, cells were again washed twice in FACS buffer, then resuspended in […] of PBS for FACS analysis. Analysis was carried out on a Beckman-Coulter FACS. To determine the apparent affinity constant KDapp, mean fluorescence values were plotted against the ratio of mean fluorescence and the corresponding antibody contration ([M]). The calculated KDapp resulted from the inverse slope of the straight line (FIG. 2).

T1 sequence (P22455 22-802 limits assumed): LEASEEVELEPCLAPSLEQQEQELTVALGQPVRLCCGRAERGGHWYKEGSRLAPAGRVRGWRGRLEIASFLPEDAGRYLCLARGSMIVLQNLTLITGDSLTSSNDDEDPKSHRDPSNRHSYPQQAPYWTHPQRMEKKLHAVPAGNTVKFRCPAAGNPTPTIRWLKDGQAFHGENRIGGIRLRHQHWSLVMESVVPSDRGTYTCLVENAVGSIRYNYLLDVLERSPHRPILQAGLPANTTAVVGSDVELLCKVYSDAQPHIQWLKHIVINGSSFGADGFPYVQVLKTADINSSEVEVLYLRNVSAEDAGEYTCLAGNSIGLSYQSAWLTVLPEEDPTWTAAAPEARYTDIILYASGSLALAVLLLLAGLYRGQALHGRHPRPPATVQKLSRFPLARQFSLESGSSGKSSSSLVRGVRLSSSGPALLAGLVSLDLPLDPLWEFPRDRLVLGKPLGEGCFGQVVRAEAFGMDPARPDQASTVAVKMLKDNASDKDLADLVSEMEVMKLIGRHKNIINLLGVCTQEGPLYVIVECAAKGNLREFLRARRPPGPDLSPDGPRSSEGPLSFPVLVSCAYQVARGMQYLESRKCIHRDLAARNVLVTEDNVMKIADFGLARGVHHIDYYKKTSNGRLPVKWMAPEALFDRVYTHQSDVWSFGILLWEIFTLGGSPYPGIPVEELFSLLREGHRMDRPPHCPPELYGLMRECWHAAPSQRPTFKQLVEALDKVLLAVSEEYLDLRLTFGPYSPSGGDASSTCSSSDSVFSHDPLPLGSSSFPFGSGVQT

binding result | Binder
binds | anti-FGFR4 antibody 9A5 (antibody, V domains shown, Rat monoclonal antibody from a hybridoma) VH: QVQLRESGPGLVQPSQTLSLTCTVSGFSLTFYHVSWVRQPPGKGLEWMGVIWTGGSTTYNSLLKSRLTISRDTSKSQVFLKMNSLQTEDTATYYCARGGGDRGYFAFWGPGTMVTVSS VL: NTVMTQSPTSMFTSVGDRVTMSCKASQNVGINVGWYQQKTGQSPKRLIYWASNRDTGVPDRFTGSGSGTDFTLTISNMQAEDPAIYYCLQHNSYPWTFGGGTKLELKR
binds | anti-FGFR4 antibody 10F10 (antibody, V domains shown, Rat monoclonal antibody from a hybridoma (rats immunised with FGFR4-ECD-GST)) VH: EVQLKESGPGLVQPSQTLSLTCTVSGFSLTDYSVHWVRQPPGKGLEWMGVVWSSGSTAYNSALKSRLRITRDTSKSQAFLKMNSLQTEDTAIYYCTRPRYSSWFVYWGQGTLVTVSS VL: DTVLTQSPALAVSLGQRVTISCRASKSVSTFIHWYQQKSGQQPKLLIYSASNTESGPSRFSGSGSGTDFTLTIDPVEADDIANYYCQQSNELPWTFGGGTKLELKR
